The chains are these.
B1: Hairpin Ribozyme (parent)
chain: GUCCUCUUUCACGUGCGCGUGAAAGAGAGAAGUGAACCAGAGAAACACACGUUGUGGUAUAUUACCUGGUA

The variants in the data set derive from B1. As to the kind of experiment: self-cleavage, relative activity (ratio to wild type); higher = more cleavage; co-transcriptional.
For GUCCUCUUUCACGCGCGCGCGAAAGAGAGAAGUGAACCAGAGAAACACACGUUGUGGUAUAUUACCUGGUA, the self-cleavage worked out at 1.03.
As for GUCCUCUUUCACGCGCGCGUGAAAGAGAGAAGUGAACCAGAGAAACUCACGUUGUGGUAUAUUACCUGGUA, the self-cleavage came to 0.112.
In the case of GUCCUCUUUCACGCGCGCGUGAAAGAGAGAAGUGAACCAGAGAAACCCACGUUGUGGUAUAUUACCUGGUA it was 0.484; in that of GUCCUCUUUCACGGGCGCGUGAAUGAGAGAAGUGAACCAGAGAAACACACGUUGUGGUAUAUUACCUGGUA, 0.653; in that of GUCCUCUUUCACGCGCGCGUGAAAGAUAGAAGUGAACCAGAGAAACACACGUUGUGGUAUAUUACCUGGUA, 0.102.
In the case of GUCCUCUUUCACGCGCGCGUGAAAGAGAGAAGUGAACCAGAGGAACACACGUUGUGGUAUAUUACCUGGUA it was 0.147; in that of GUCCUCUUUCACGCGCGCGUGAAAGAGAGAAGUGAACCAGAGUAACACACGUUGUGGUAUAUUACCUGGUA, 0.094.
For GUCCUCUUUCACGCGCGCGUGAAAGAGAGAAGUGAACCAGAGCAACACACGUUGUGGUAUAUUACCUGGUA, the self-cleavage was 0.114.
For GUCCUCUUUCACGCGCGCGUGAAAGAGAGAAGUGAACCAGACAAACACACGUUGUGGUAUAUUACCUGGUA, the self-cleavage worked out at 0.403.
In the case of GUCCUCUUUCACGCGCGCGUGAAAGAGAGAAGUGAACCAGAUAAACACACGUUGUGGUAUAUUACCUGGUA it was 0.365; in that of GUCCUCUUUCACGCGCGCGUGAAAGAGAGAAGUGAACCAGAAAAACACACGUUGUGGUAUAUUACCUGGUA, 0.154; in that of GUCCUCUUUCACGCGCACGUGAAAGAGAGAAGUGAACCAGAGAAACACACGUUGUGGUAUAUUACCUGGUA, 0.861.
In the case of GUCCUCUUUCACGCGCUCGUGAAAGAGAGAAGUGAACCAGAGAAACACACGUUGUGGUAUAUUACCUGGUA, the self-cleavage is 1.24.
Take GUCCUCUUUCACGCGCGCGUGAAAGAGAGAAGUGAACCAGAGAAACACCCGUUGUGGUAUAUUACCUGGUA: the self-cleavage came to 0.162.
GUCCUCUUUCACGCGCGCGUGAAAGAGAGAAGUGAACCAGAGAAACACUCGUUGUGGUAUAUUACCUGGUA: the self-cleavage came out at 0.134.
The same measure for GUCCUCUUUCACGCGCGCGUGAAAGAGAGAAGUGAACCAGAGAAACACACGUUGUGGUAUAUUACCUGGAA: 0.814; for GUCCUCUUUCACGCGCGCGUGAAAGAGAGAAGUGAACCAGAGAAACAGACGUUGUGGUAUAUUACCUGGUA: 0.26.
In the case of GUCCUCUUUCACGCGCGCGUGAAAGAGAGAAGUGAACCAGAGAAACACACGUUGUGGUAUAUUACGUGGUA it was 0.337.
As for GUCCUCUUUCACGCGCGCGUGAAAGAGAGAAGUGAACCAGAGAAACACACGUUGUGGUAUAUUACUUGGUA, the self-cleavage was determined as 0.408.
In the case of GUCCUCUUUCACGAGCGCGUGAAAGAGAGAAGUGAACCAGAGAAACACACGCUGUGGUAUAUUACCUGGUA it was 0.788.
Take GUCCUCUUUCACGAGCGCGUGAAAGAGAGAAGUGAACCAGAGAAACACACGGUGUGGUAUAUUACCUGGUA: the self-cleavage was 0.494.
GUCCUCUUUCACGAGCGCGUGAAAGAGAGAAGUGAACCAGAGAAACACACGUUGUGGUAUAUUACCUGGCA: the self-cleavage was determined as 1.01.
In the case of GUCCUCUUUCACGAGCGCGUGAAAGAGAGAAGUGAACCAGAGAAACACACGUUGUGGUAUAUUACCUGGGA it was 0.714; in that of GUCCUCUUUCACGAGCGCGUGAAAGAGAGAAGUGAACCAGAGAAACACACGUUGUGGUAUAUGACCUGGUA, 0.0901.
The same measure for GUCCUCUUUCACGCGCGCGUGAAAGAGAGAAGUGAACCAGAGAAAUACACGUUGUGGUAUAUUACCUGGUA: 0.078; for GUCCUCUUUCACGCGCGCGUGAAAGAGAGAAGUGAACCAGAGAAAAACACGUUGUGGUAUAUUACCUGGUA: 0.174.
With GUCCUCUUUCACGCGCGCGUGAAAGAGAGAAGUGAACCAGAGAAAGACACGUUGUGGUAUAUUACCUGGUA, the self-cleavage is 0.0498.
For GUCCUCUUUCACGCGCGAGUGAAAGAGAGAAGUGAACCAGAGAAACACACGUUGUGGUAUAUUACCUGGUA, the self-cleavage is 0.933.
As for GUCCUCUUUCACGCGCGUGUGAAAGAGAGAAGUGAACCAGAGAAACACACGUUGUGGUAUAUUACCUGGUA, the self-cleavage was found to be 0.868.
As to GUCCUCUUUCACGGGCGCGUGAAAGAGAGCAGUGAACCAGAGAAACACACGUUGUGGUAUAUUACCUGGUA, the self-cleavage was found to be 0.129.
The same measure for GUCCUCUUUCACGAGCGCGUGAAAGAGAGAAGUGAACCAGAGAAACACACGUAGUGGUAUAUUACCUGGUA: 1.12.
On to GUCCUCUUUCACGCGCGCGUGAAAGAGAGAAGUGAACCAGAGAAACACACGUUGAGGUAUAUUACCUGGUA, for which the self-cleavage amounted to 0.271.
For GUCCUCUUUCACGCGCGCGUGAAAGAGAGAAGUGAACCAGAGAAACACACGUUGGGGUAUAUUACCUGGUA, the self-cleavage amounted to 0.352.
Take GUCCUCUUUCACGCGCGCGUGAAAGAGAGAAGUGAACCAGAGAAACACACGUUGCGGUAUAUUACCUGGUA: the self-cleavage was 0.483.
In the case of GUCCUCUUUCACGCGCGCGUGAAAGAGCGAAGUGAACCAGAGAAACACACGUUGUGGUAUAUUACCUGGUA it was 0.565; in that of GUCCUCUUUCACGCGCGCGUGAGAGAGAGAAGUGAACCAGAGAAACACACGUUGUGGUAUAUUACCUGGUA, 0.841.
In the case of GUCCUCUUUCACGCGCGCGUGAAAGAGACAAGUGAACCAGAGAAACACACGUUGUGGUAUAUUACCUGGUA it was 0.17; in that of GUCCUCUUUCACGCGCGCGUGAAAGAGAGAAGUGAACCAGAGAAACACACGUUGUGGUAUAUUACCUGUUA, 0.3.

These data come from the RNAGym collection of RNA variant scans (doi:10.7554/elife.80360).
